The record followed here is patent US20190010249A1 (Ablynx, published 2019).

Experiment [1] addresses T1, human multimeric vWF (purified vWF HaemateP) (human, UniProt P04275 764-2813).
T1 construct: vWF purified from HaemateP by size-exclusion chromatography; also called multimeric target vWF; purified HaemateP
Description: Gyrolab solution affinity, 5 pM caplacizumab pre-incubated with vWF dilution series; liquid formulation. An excerpt: (§1) This assay measures the inhibition of ristocetin-induced binding of von Willebrand Factor (vWF) to bound platelet by caplacizumab. [0395] c) The RICO assay is used as pharmacodynamics marker for the pharmacological activity of caplacizumab. The assay measures the rate and degree to which human lyophilized platelets form aggregates after the addition of the antibiotic ristocetin, which mimics shear-induced activation of vWF. [0396] d) Gyrolab-based assay analyses the kinetic interactions of caplacizumab with its multimeric target vWF and determines the affinity constant of caplacizumab to human multimeric vWF. Briefly, affinity determination on the Gyroloab platform was established as follows: Gyrolab Bioaffy 1000 CDs were used. As capture tool, 3000 nM in-house biotinylated purified vWF (purified HaemateP using size-exclusion chromatography) was applied on the columns which were pre-packed with streptavidin-coated beads. Filter-sterilized D-PBS containing 0.01% Tween-20 was used for dilution of the capture tool. […] Free caplacizumab was detected with 50 nM AlexaFluor647-labeled anti-caplacizumab monoclonal antibody diluted in Rexxip F buffer (commercially available detection buffer). […]

The target of experiment [2] is T1, human multimeric vWF (purified vWF …). The experiment can be described thus: Gyrolab solution affinity, 5 pM caplacizumab pre-incubated with vWF dilution series; lyophilized formulation.
Description: as §1

B1: 12A02H1-3a-12A02H1 (ALX-0081) (VHH)
chain: EVQLVESGGGLVQPGGSLRLSCAASGRTFSYNPMGWFRQAPGKGRELVAAISRTGGSTYYPDSVEGRFTISRDNAKRMVYLQMNSLRAEDTAVYYCAAAGVRAEDGRVRTLPSEYTFWGQGTQVTVSSAAAEVQLVESGGGLVQPGGSLRLSCAASGRTFSYNPMGWFRQAPGKGRELVAAISRTGGSTYYPDSVEGRFTISRDNAKRMVYLQMNSLRAEDTAVYYCAAAGVRAEDGRVRTLPSEYTFWGQGTQVTVSS
notes: Bivalent Nanobody: a single chain of two 12A02H1 domains joined by an AAA linker; It was tested as samples from different formulations and storage conditions; also called caplacizumab; anti-vWF Nanobody caplacizumab
Consider B1, for which the dissociation constant Kd (usually the equilibrium constant for the complex coming apart) in experiment [1] worked out at 6.84 pM; in experiment [2] it was 4.46 pM.
